Test: Particle size by dynamic light scattering
Type: physicochemical
Details: Zetasizer Nano ZS, 25 °C

dendritic polylysine-1,4,7-triazacyclononane-1,4,7-triacetic acid conjugate [NOTA-DGL]
diameter (particle size, DLS): 35.02 ± 1.53 nm

From publication PMC9054685 (RSC Advances, 2020)
